Assays:
[1] = target: wtEGFR at physiological levels on WI-38 cells (human) (UniProt P00533); experiment: flow cytometry, antibodies added at 2 µg/ml, WI-38 cells
[2] = target: EGFR overexpressed on cancer cell lines MDA-MB-468 and A431 (human) (UniProt P00533); experiment: flow cytometry, antibodies added at 2 µg/ml, MDA-MB-468 cells
[3] = target: EGFRvIII on F98npEGFRvIII cells (rat glioma F98 transfected with nonphosphorylated EGFRvIII); experiment: flow cytometry, antibodies added at 2 µg/ml, F98-npEGFRvIII cells
[4] = target: EGFR overexpressed on cancer cell lines MDA-MB-468 and A431 (human) (UniProt P00533); experiment: flow cytometry, antibodies added at 2 µg/ml, A431 cells
[5] = target: wild-type EGFR on F98EGFR cells (rat glioma F98 transfected with full-length EGFR) (UniProt P00533); experiment: flow cytometry, antibodies added at 2 µg/ml, F98-EGFR cells
[6] = target: EGFR and EGFRvIII on GBM39 cells (patient derived xenograft glioblastoma line); experiment: flow cytometry on GBM39 cells, antibody at 0.2 µg/ml
[7] = target: EGFRvIII on DKMG-EGFRvIII cells (human glioblastoma line DKMG transduced with EGFRvIII); experiment: flow cytometry on DKMG-EGFRvIII cells, antibody at 10 µg/ml
[8] = target: EGFR and EGFRvIII on GBM39 cells (patient derived xenograft glioblastoma line); experiment: flow cytometry on GBM39 cells, antibody at 2 µg/ml
[9] = target: EGFR and EGFRvIII on GBM39 cells (patient derived xenograft glioblastoma line); experiment: flow cytometry on GBM39 cells, antibody at 20 µg/ml
[10] = target: wtEGFR at physiological levels on WI-38 cells (human) (UniProt P00533); experiment: flow cytometry on WI-38 cells, antibody at 2 µg/ml
[11] = target: EGFRvIII on DKMG-EGFRvIII cells (human glioblastoma line DKMG transduced with EGFRvIII); experiment: flow cytometry on DKMG-EGFRvIII cells, antibody at 1 µg/ml
[12] = target: EGFRvIII on DKMG-EGFRvIII cells (human glioblastoma line DKMG transduced with EGFRvIII); experiment: flow cytometry on DKMG-EGFRvIII cells, antibody at 0.1 µg/ml
[13] = target: wild-type EGFR on F98EGFR cells (rat glioma F98 transfected with full-length EGFR) (UniProt P00533); experiment: flow cytometry on F98EGFR cells, antibody at 2 µg/ml

Row | Median : PE-A [1] | Median : PE-A [2] | Median : PE-A [3] | Median : PE-A [4] | Median : PE-A [5] | median fluorescent intensity [6] | median fluorescent intensity [7] | median fluorescent intensity [8] | median fluorescent intensity [9] | GeoMean [10] | median fluorescent intensity [11] | median fluorescent intensity [12] | GeoMean [13] | Substance
1 | 48 | 34.9 | 26.2 | 34.3 | 32.6 | – | – | – | – | – | – | – | – | IgG1 Iso Con (antibody)
2 | 47.6 | 34.1 | 26.9 | 31.2 | 33.5 | – | – | – | – | – | – | – | – | IgG2 Iso Con (antibody)
3 | 2720 | 6860 | 4470 | 10700 | 4040 | 12700 | 13500 | 29800 | 30300 | 2450 | 14300 | 12900 | 3700 | monoclonal antibody ma528

— US20260193363A1
